# Experiments:
# [1] = target: MDA-modified bovine serum albumin (bovine) (UniProt P02769); assay: ELISA; plasma added to coated MDA-BSA; bound CFH/FHL-1 detected with a monoclonal antibody that recognizes SCR5; read-out RLU/100 ms
# [2] = target: MDA-modified bovine serum albumin (bovine) (UniProt P02769); assay: MST; microscale thermophoresis with both binding partners in fluid phase
# Sequence of MDA-modified bovine serum albumin (bovine) (P02769 25-607): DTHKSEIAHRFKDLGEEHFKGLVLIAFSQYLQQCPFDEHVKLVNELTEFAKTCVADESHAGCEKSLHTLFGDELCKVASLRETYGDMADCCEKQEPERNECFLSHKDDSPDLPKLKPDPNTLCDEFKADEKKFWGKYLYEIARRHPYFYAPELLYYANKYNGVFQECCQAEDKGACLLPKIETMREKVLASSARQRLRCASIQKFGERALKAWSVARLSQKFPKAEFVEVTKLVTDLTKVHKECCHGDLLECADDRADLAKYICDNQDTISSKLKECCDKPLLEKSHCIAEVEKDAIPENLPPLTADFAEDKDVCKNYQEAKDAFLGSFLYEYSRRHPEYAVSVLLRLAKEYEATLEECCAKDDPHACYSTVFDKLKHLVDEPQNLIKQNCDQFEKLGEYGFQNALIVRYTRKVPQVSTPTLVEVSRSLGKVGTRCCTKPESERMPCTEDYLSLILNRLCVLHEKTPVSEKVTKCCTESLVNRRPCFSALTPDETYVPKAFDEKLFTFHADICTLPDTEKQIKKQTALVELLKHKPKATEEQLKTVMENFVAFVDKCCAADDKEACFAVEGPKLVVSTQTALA
# Sequence of complement factor H and its splice variant factor H-like protein 1 in plasma (study cohorts, all rs1061170 genotypes) (P08603 19-1231, change not shown): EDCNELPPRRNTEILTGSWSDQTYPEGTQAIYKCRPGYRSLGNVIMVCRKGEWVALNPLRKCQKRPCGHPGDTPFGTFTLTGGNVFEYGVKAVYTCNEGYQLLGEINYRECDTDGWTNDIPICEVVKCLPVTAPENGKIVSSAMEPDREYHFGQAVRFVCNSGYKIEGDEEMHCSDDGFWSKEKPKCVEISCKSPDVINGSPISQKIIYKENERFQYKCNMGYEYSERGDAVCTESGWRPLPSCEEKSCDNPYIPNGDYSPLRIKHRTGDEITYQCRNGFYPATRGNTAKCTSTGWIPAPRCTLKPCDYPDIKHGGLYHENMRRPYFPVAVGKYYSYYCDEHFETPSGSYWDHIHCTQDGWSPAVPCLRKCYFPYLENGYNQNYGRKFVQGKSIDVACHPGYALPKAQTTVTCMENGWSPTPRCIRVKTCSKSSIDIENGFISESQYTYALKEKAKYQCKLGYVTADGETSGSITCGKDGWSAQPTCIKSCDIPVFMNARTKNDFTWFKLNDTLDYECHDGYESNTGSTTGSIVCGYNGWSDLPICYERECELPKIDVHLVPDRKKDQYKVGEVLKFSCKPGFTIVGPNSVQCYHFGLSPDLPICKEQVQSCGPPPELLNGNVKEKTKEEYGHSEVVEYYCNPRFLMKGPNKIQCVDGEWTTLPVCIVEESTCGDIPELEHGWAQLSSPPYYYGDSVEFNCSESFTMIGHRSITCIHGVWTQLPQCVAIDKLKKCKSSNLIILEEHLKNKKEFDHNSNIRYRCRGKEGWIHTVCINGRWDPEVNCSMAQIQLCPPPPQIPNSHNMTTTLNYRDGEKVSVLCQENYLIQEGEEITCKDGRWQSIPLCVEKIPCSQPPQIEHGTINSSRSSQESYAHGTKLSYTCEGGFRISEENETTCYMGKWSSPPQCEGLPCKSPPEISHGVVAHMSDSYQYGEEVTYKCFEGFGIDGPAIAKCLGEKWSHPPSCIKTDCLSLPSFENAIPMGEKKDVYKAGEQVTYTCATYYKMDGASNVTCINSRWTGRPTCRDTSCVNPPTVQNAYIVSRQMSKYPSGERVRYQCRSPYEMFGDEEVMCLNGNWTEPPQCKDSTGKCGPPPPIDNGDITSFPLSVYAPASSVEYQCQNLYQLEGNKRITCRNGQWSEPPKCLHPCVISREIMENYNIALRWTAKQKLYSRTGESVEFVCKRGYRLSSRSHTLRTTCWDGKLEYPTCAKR
"binding to MDA-BSA, median of healthy individuals (n = 934) [1]","binding to MDA-BSA, median of patients with major depression (n = 896) [1]","binding to MDA-BSA, median of the integrated cohort (n = 1,830) [1]",Kd [2],Substance
24200 RLU/100 ms,24800 RLU/100 ms,24600 RLU/100 ms,,"complement factor H and its splice variant factor H-like protein 1 in plasma (study cohorts, all rs1061170 genotypes) (from UniProt P08603 19-1231) (natural protein)"
,,,0.86 µM,recombinant complement factor H-related protein 1 (from UniProt Q03591 19-330) (natural protein)
,,,3.48 µM,recombinant complement factor H-related protein 3 (from UniProt Q02985 19-330) (natural protein)
